Measured values published in patent publication CN117025546A.

Legend:
[1] = biological target: GST标签蛋白 (Schistosoma japonicum (Blood fluke)) [GST: P08515]; experiment: indirect ELISA, GST tag protein coated in dilution series, antibody at 1 μg/mL
[2] = biological target: GST标签蛋白 (Schistosoma japonicum (Blood fluke)) [GST: P08515]; experiment: indirect ELISA, GST tag protein coated at 10000 to 0.64 ng/mL, antibody at 1 μg/mL

OD (450nm) at antigen 20ng/ml [1]: 1 OD | 亲和力 [2]: 20 ng/mL
B1: 抗GST单克隆抗体 (杂交瘤细胞株62H9分泌, CCTCC NO:C2021187) (antibody, V domains shown)
VH: EVQLQESGPELVKPGASVRMSCKASGYTFTSYFMHWVKQKSGQGLEWIGYINPYHDGTNYNEKFKGKATLTSDKSSSTAYMELSSLTSEDSAVYSCARSQRLHWYFDVWGAGTTVTVSS
VL: DIVLTQSPTSLAVSLGQRATISCRASQGVSASSYSYIHWYQQKPGQPPKLLIKYASNLESGVPARFSGSGSGTDFTLNVHPVEEEDTATYYCQHSWEIPLTFGGGTKLEIK
